The text below walks through data of patent US20070224188A1.

The target of the experiment is biotin-labeled soluble FcRn. Put plainly: FcRn ELISA pH 6.0. In general terms: In an ELISA, binding on a coated surface is turned into a signal by an enzyme label.
anti-CD20 IgG1 P343V (antibody) gave a FcRn pH6.0 (% of wild type) of 77.
anti-CD20 IgG1 343R345D (antibody) yielded a FcRn6.0 (% of wild type) of 143.
In turn, anti-CD20 IgG1 V264S (antibody) gave a FcRn pH6.0 (% of wild type) of 78.
Same read-out and setting: with anti-CD20 IgG1 E269Q (antibody) the figure was 98; with anti-CD20 IgG1 H268K (antibody), 86.
The substance anti-CD20 IgG1 268E332E (antibody) registered a FcRn6.0 (% of wild type) of 88.
Turning to anti-CD20 IgG1 H429A (antibody), the FcRn pH6.0 (% of wild type) was 61.
Same read-out and setting: with anti-CD20 IgG1 P247G (antibody) the figure was 75; with anti-CD20 IgG1 P247F (antibody), 6; with anti-CD20 IgG1 D249E (antibody), 78.
On the same count and under the same terms, with anti-CD20 IgG1 K288P (antibody) the figure was 119; with anti-CD20 IgG1 S440V (antibody), 98; with anti-CD20 IgG1 I332F (antibody), 108.
On the same count and under the same terms, with anti-CD20 IgG1 L314W (antibody) the figure was 5.
The substance anti-CD20 IgG1 247L332E376I (antibody) yielded a FcRn6.0 (% of wild type) of 74.
On to anti-CD20 IgG1 A339T (antibody), for which the FcRn pH6.0 (% of wild type) worked out at 138.
Still for that read-out and setting: the value for anti-CD20 IgG1 S254W (antibody) was 0.
The same measure, in the same setting: the value for anti-CD20 IgG1 E382P (antibody) was 122; that for anti-CD20 IgG1 L251W (antibody) was 0.
As for anti-CD20 IgG1 V279Q (antibody), the FcRn pH6.0 (% of wild type) came out at 181.
Same read-out and setting: the value for anti-CD20 IgG1 E380A (antibody) was 152; that for anti-CD20 IgG1 N434G (antibody) was 358.
The substance anti-CD20 IgG1 G341W (antibody) came in with a FcRn pH6.0 (% of wild type) of 76.
Still for that read-out and setting: with anti-CD20 IgG1 E283L (antibody) the figure was 126; with anti-CD20 IgG1 P244L (antibody), 124.
Still for that read-out and setting: the value for anti-CD20 IgG1 G341I (antibody) was 36; that for anti-CD20 IgG1 A339D (antibody) was 80.
Same read-out and setting: with anti-CD20 IgG1 T256E (antibody) the figure was 339; with anti-CD20 IgG1 D265K (antibody), 107; with anti-CD20 IgG1 T256N (antibody), 229.
For anti-CD20 IgG1 K288N (antibody), the FcRn pH6.0 (% of wild type) is 162.
The same measure, in the same setting: the value for anti-CD20 IgG1 G385P (antibody) was 101.
As to anti-CD20 IgG1 L235G (antibody), the FcRn pH6.0 (% of wild type) is 85.
Still for that read-out and setting: the value for anti-CD20 IgG1 A339W (antibody) was 156; that for anti-CD20 IgG1 S440E (antibody) was 73; that for anti-CD20 IgG1 Y373M (antibody) was 53.
The same measure, in the same setting: with anti-CD20 IgG1 V379T (antibody) the figure was 109.
Still for that read-out and setting: the value for anti-CD20 IgG1 S440D (antibody) was 72; that for anti-CD20 IgG1 L432R (antibody) was 38; that for anti-CD20 IgG1 S254D (antibody) was 7.
anti-CD20 IgG1 G385E (antibody) registered a FcRn pH6.0 (% of wild type) of 98.
anti-CD20 IgG1 M252Y (antibody) registered a FcRn pH6.0 (% of wild type) of 964.
With anti-CD20 IgG1 R292L (antibody), the FcRn pH6.0 (% of wild type) worked out at 68.
Still for that read-out and setting: with anti-CD20 IgG1 L235A (antibody) the figure was 102.
anti-CD20 IgG1 376V430R (antibody) gave a FcRn6.0 (% of wild type) of 188.
anti-CD20 IgG1 G341R (antibody) returned a FcRn pH6.0 (% of wild type) of 78.
The substance anti-CD20 IgG1 E272L (antibody) came in with a FcRn pH6.0 (% of wild type) of 129.
On the same count and under the same terms, the value for anti-CD20 IgG1 K248Q (antibody) was 38.
Regarding anti-CD20 IgG1 L314Y (antibody), the FcRn pH6.0 (% of wild type) came to 64.
On to anti-CD20 IgG1 Y373I (antibody), for which the FcRn pH6.0 (% of wild type) is 73.
The same measure, in the same setting: with anti-CD20 IgG1 V279H (antibody) the figure was 173; with anti-CD20 IgG1 L235E (antibody), 87; with anti-CD20 IgG1 P247I (antibody), 79.
The same measure, in the same setting: with anti-CD20 IgG1 A431K (antibody) the figure was 176.
The same measure, in the same setting: the value for anti-CD20 IgG1 N434H (antibody) was 855; that for anti-CD20 IgG1 E380N (antibody) was 142; that for anti-CD20 IgG1 A339E (antibody) was 75.
As to anti-CD20 IgG1 283R311I (antibody), the FcRn6.0 (% of wild type) was 531.
For anti-CD20 IgG1 Q311Y (antibody), the FcRn pH6.0 (% of wild type) is 94.
Still for that read-out and setting: the value for anti-CD20 IgG1 A339G (antibody) was 67; that for anti-CD20 IgG1 G236R (antibody) was 101.
Same read-out and setting: the value for anti-CD20 IgG1 D249M (antibody) was 50; that for anti-CD20 IgG1 P247S (antibody) was 81.
On the same count and under the same terms, with anti-CD20 IgG1 Q386K (antibody) the figure was 115; with anti-CD20 IgG1 V279F (antibody), 113; with anti-CD20 IgG1 S440R (antibody), 88.
Substance anti-CD20 IgG1 A431H (antibody) had a FcRn pH6.0 (% of wild type) of 151.
Same read-out and setting: with anti-CD20 IgG1 T256V (antibody) the figure was 114.
The same measure, in the same setting: with anti-CD20 IgG1 D376S (antibody) the figure was 134.
With anti-CD20 IgG1 Q311V (antibody), the FcRn pH6.0 (% of wild type) is 558.
On to anti-CD20 IgG1 G341V (antibody), for which the FcRn pH6.0 (% of wild type) was 69.
In the case of anti-CD20 IgG1 V279S (antibody), the FcRn pH6.0 (% of wild type) amounted to 242.
Still for that read-out and setting: with anti-CD20 IgG1 P238L (antibody) the figure was 115.
For the substance anti-CD20 IgG1 Y436I (antibody), the FcRn pH6.0 (% of wild type) came out at 194.
The substance anti-CD20 IgG1 K317P (antibody) displayed a FcRn pH6.0 (% of wild type) of 145.
Same read-out and setting: with anti-CD20 IgG1 V279A (antibody) the figure was 214.
anti-CD20 IgG1 272R376V (antibody) gave a FcRn6.0 (% of wild type) of 369.
Still for that read-out and setting: with anti-CD20 IgG1 332E440Y (antibody) the figure was 94.
Turning to anti-CD20 IgG1 G316F (antibody), the FcRn pH6.0 (% of wild type) turned out to be 34.
Still for that read-out and setting: with anti-CD20 IgG1 P343R (antibody) the figure was 198.
Same read-out and setting: with anti-CD20 IgG1 P343Y (antibody) the figure was 112.
Regarding anti-CD20 IgG1 251F376I (antibody), the FcRn6.0 (% of wild type) was 66.
For the substance anti-CD20 IgG1 S254R (antibody), the FcRn pH6.0 (% of wild type) is 14.
With anti-CD20 IgG1 D376G (antibody), the FcRn pH6.0 (% of wild type) is 135.
The same measure, in the same setting: the value for anti-CD20 IgG1 E382T (antibody) was 172; that for anti-CD20 IgG1 T256M (antibody) was 35.
Substance anti-CD20 IgG1 E258D (antibody) gave a FcRn pH6.0 (% of wild type) of 361.
anti-CD20 IgG1 P257I (antibody): the FcRn pH6.0 (% of wild type) was found to be 1020.
The substance anti-CD20 IgG1 H429F (antibody) yielded a FcRn pH6.0 (% of wild type) of 77.
The same measure, in the same setting: with anti-CD20 IgG1 E283I (antibody) the figure was 143.
With anti-CD20 IgG1 E283D (antibody), the FcRn pH6.0 (% of wild type) worked out at 110.
On the same count and under the same terms, with anti-CD20 IgG1 P247W (antibody) the figure was 0; with anti-CD20 IgG1 T307M (antibody), 302.
anti-CD20 IgG1 E283Y (antibody) came in with a FcRn pH6.0 (% of wild type) of 142.
Regarding anti-CD20 IgG1 P343L (antibody), the FcRn pH6.0 (% of wild type) stood at 125.
On the same count and under the same terms, with anti-CD20 IgG1 K248W (antibody) the figure was 30.
Still for that read-out and setting: the value for anti-CD20 IgG1 D280T (antibody) was 60.
Same read-out and setting: the value for anti-CD20 IgG1 D376Q (antibody) was 116; that for anti-CD20 IgG1 F423N (antibody) was 158.
anti-CD20 IgG1 286F307E (antibody) had a FcRn6.0 (% of wild type) of 431.
On to anti-CD20 IgG1 Q438L (antibody), for which the FcRn pH6.0 (% of wild type) came to 200.
The same measure, in the same setting: the value for anti-CD20 IgG1 L314F (antibody) was 42.
With “anti-CD20 IgG1 247L251F330R332E (antibody)”, the FcRn6.0 (% of wild type) came out at 50.
anti-CD20 IgG1 272R279L (antibody) displayed a FcRn6.0 (% of wild type) of 156.
On to anti-CD20 IgG1 Q438W (antibody), for which the FcRn pH6.0 (% of wild type) was 164.
anti-CD20 IgG1 E430H (antibody) yielded a FcRn pH6.0 (% of wild type) of 192.
Same read-out and setting: with anti-CD20 IgG1 E382S (antibody) the figure was 151; with anti-CD20 IgG1 S440W (antibody), 85.
In turn, anti-CD20 IgG1 258D376V (antibody) registered a FcRn6.0 (% of wild type) of 415.
